In the test the target is T1, Human recombinant toll like receptor 4 (rTLR4) (human, UniProt O00206 24-631).
T1 construct: toll like receptor 4 (TLR4), human, recombinant; No catalogue number or construct limits are printed; a soluble recombinant TLR4 is most likely the extracellular domain (surmised); also called MP-rTLR4; source: bought: R & D Systems
The test is described as follows: pull-down; rTLR4 held by its His tag on Ni-NTA magnetic beads; MD2 (Alexa Fluor 647), CD14 and LPS-Alexa Fluor 488 co-incubated in one tube in PBS pH 7.4 with 0.5% Tween 20 at RT; beads removed by magnet at 15, 30, 45, 60 and 90 min; unbound MD2 in the supernatant quantified by fluorescence, CD14 by silver staining. The following applies: both partners purified.

These results are taken from paper PMC6992608, “A Single Step in vitro Bioassay Mimicking TLR4-LPS Pathway and the Role of MD2 and CD14 Coreceptors” (Frontiers in Immunology, 2020).

Usually stoichiometry N stands for a count of units in the complex or per binding partner.

T1 sequence (O00206 24-631): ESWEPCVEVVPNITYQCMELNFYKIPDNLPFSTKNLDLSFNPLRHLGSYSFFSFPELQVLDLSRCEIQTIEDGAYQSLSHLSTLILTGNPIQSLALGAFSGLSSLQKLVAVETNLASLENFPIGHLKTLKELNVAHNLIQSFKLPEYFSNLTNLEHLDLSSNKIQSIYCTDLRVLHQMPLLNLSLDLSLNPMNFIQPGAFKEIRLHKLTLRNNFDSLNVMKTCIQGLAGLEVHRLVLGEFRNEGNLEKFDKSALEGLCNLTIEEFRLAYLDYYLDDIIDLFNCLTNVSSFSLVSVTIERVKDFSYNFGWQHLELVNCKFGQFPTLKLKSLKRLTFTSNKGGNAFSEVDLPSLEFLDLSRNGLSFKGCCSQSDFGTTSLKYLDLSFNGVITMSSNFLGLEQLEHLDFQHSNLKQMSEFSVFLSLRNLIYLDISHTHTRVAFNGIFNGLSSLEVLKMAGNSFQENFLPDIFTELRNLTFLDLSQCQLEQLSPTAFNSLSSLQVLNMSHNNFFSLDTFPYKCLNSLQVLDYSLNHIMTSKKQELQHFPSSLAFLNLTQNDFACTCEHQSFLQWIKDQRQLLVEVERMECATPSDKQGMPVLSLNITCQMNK

B1: Recombinant human myeloid differentiation-2 (MD2) protein (natural protein, UniProt Q9Y6Y9 19-160, looked up)
chain: QKQYWVCNSSDASISYTYCDKMQYPISINVNPCIELKRSKGLLHIFYIPRRDLKQLYFNLYITVNTMNLPKRKEVICRGSDDDYSFCRALKGETVNTTISFSFKGIKFSKGKYKCVVEAISGSPEEMLFCLEFVILHQPNSN
modifications: Alexa Fluor 647, on average 3 tags per MD2 molecule
notes: myeloid differentiation-2 (MD2, lymphocyte antigen 96), human, recombinant; No catalogue number is printed; source: bought: Abcam
As to B1, the “stoichiometry N” value was 1.
